This is an account of results in US20240109954A1 (GENERAL HOSPITAL, published 2024).

One test has as its target T1, mouse FcγRIII (mouse, UniProt P08508 31-215).
T1 construct: also called mFcγRIII; mFcγR3
T1 sequence: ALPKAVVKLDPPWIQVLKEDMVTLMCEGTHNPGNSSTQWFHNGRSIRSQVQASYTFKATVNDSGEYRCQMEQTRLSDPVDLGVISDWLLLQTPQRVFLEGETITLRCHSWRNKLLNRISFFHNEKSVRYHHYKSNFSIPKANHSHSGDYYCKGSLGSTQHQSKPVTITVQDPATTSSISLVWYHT
In words: BLI, mAb on anti-human Fab-CH1 sensor, FcγR in solution; monomeric mAb:receptor affinity of Table 6 (weak binding).

For test [1], the target named is T2, human FcγR3A (F158) (human, UniProt P08637 17-208).
T2 construct: also called huFcγR3A
T2 sequence (P08637 17-208): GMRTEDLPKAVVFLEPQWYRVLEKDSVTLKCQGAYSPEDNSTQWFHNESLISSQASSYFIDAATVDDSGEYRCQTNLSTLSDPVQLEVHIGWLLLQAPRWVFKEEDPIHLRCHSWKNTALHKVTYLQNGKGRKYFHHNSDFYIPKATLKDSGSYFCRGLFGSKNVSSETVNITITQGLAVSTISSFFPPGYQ
The test is described as follows: SPR, mAb printed on chip, FcγR injected; SPR KD of Table 6: measurable but very weak (0.003-fold of IgG1). (In general: Surface plasmon resonance follows binding to a sensor surface in real time, without labels.)

In test [2] the target is T3, human FcγR2A (R131) (human, UniProt P12318 34-217).
T3 construct: also called huFcγR2A
T3 sequence: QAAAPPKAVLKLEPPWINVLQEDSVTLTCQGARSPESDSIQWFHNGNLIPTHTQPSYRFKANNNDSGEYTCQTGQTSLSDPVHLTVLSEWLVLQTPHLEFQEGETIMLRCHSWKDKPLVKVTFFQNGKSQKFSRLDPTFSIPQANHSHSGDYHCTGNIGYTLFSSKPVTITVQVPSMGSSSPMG
The test is described as follows: SPR, mAb printed on chip, FcγR injected; fold-change of KD relative to IgG1, same SPR measurement.

In test [3] the target is T2, human FcγR3A (F158). The description is as above.
The target of another test is T4, human FcγR2B (human, UniProt P31994 43-217).
T4 construct: also called huFcγR2B
T4 sequence: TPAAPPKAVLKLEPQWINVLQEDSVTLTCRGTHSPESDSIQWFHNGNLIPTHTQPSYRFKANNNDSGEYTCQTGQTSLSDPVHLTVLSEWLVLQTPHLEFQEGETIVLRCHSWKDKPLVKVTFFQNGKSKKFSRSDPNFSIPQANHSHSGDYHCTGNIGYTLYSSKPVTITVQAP
The test is described as follows: SPR, mAb printed on chip, FcγR injected; ND = not detected.

The next test concerns the target T5, human FcγR3B (human, UniProt O75015 17-200).
T5 construct: also called huFcγR3B
The test is described as above.

A further test has as its target T6, mouse FcγRIIb (mouse, UniProt P08101 30-210).
T6 construct: also called mFcγRIIb; mFcγR2b
T6 sequence: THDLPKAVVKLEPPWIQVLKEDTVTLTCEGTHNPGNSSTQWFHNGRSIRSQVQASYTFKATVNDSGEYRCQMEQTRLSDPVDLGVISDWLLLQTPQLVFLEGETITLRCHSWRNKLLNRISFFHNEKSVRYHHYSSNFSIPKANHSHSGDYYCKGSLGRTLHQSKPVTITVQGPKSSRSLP
The test is described as follows: BLI, mAb on anti-human Fab-CH1 sensor; ND = not detected. Background: Biolayer interferometry detects binding as a change in optical thickness at a sensor tip.

Another test deals with T7, mouse FcγRIV (mouse, UniProt A0A0B4J1G0 21-203).
T7 construct: also called mFcγRIV
T7 sequence: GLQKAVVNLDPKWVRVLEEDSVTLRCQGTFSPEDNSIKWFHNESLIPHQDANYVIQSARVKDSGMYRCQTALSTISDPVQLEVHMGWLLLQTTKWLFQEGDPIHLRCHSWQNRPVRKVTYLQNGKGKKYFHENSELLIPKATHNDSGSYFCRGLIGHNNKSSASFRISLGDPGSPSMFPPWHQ
The test is described as above.

A further test deals with T8, mouse FcγRI (mouse, UniProt P26151 25-297).
T8 construct: also called mFcγRI
T8 sequence: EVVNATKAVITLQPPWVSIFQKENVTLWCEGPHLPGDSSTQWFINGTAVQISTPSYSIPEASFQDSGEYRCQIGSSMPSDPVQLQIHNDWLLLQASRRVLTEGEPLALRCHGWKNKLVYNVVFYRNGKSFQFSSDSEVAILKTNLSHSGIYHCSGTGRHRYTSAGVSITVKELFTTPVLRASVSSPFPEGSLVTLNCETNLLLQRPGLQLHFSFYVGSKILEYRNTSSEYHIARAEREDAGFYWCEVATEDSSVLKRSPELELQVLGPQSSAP
Described as above.

Test [4] concerns the target T3, human FcγR2A (R131). The test is described as follows: SPR, mAb printed on chip, FcγR injected; SPR KD of Table 6: measurable but very weak (0.03-fold of IgG1).

T5 sequence (O75015 17-200): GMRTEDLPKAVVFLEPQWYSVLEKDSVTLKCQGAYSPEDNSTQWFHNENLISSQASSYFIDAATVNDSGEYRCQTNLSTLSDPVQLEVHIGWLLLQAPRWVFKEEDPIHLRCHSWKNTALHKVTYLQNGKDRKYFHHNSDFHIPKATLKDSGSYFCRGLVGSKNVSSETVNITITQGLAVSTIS

B1: VIC16-LALA (antibody)
heavy: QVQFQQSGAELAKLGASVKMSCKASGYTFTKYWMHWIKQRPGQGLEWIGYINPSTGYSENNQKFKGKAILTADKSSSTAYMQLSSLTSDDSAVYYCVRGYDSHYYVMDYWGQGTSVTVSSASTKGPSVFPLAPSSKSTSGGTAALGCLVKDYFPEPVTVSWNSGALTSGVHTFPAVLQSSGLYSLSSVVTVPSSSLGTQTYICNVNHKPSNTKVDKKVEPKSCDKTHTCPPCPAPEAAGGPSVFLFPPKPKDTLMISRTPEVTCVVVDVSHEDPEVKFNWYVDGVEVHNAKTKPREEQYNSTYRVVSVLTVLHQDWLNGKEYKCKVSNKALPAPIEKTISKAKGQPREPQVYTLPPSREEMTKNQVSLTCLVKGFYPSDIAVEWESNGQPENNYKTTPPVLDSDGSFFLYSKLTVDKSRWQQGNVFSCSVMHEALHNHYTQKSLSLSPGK
light: DIVITQDTASLAVSRGQRATISCRASESVEYYGTTLMQWYQQRPGQPPKLLIYGASNVESGVPARFSGSGSGTDFSLNIHPVEEDDIAMYFCQQSRKVPYTFGGGTKLEIKRTVAAPSVFIFPPSDEQLKSGTASVVCLLNNFYPREAKVQWKVDNALQSGNSQESVTEQDSKDSTYSLSSTLTLSKADYEKHKVYACEVTHQGLSSPVTKSFNRGEC
For the molecule B1, the figures for the Kd with mouse FcγRIII, with human FcγR3A (F158) [1] and in the test with human FcγR2A (R131) [4] were 820 µM, 1700 µM and 892 µM, respectively. The entries for the “fold-change relative to IgG1” value with human FcγR2A (R131) [2] and with human FcγR3A (F158) [3] were 0.03 fold and 0.003 fold, respectively. Further, the binding result with human FcγR2B is reported as “no binding (tested: FcγR 10 µM to 0.005 µM)”; in the test with human FcγR3B it was “no binding (tested: FcγR 10 µM to 0.005 µM)”; with mouse FcγRIIb, “no binding (tested: FcγR from 600 nM)”; with mouse FcγRIV it was “no binding (tested: FcγR from 200 nM)”; with mouse FcγRI, “no binding (tested: FcγR from 200 nM)”.

One may read the Kd as a measure of binding affinity in units of concentration.
